Results on one substance are retold here after article PMC10980815, “Cell surface patching via CXCR4-targeted nanothreads for cancer metastasis inhibition” (Nature Communications, 2024).

A short description of data set [1]: Pharmacokinetics upon consecutive, simultaneous and post-assembly delivery. The class given is in vivo, female BALB/c mice. The following applies: for T1/2z: blood fluorescence, mean ± SD, n = 5; for AUC0-t / AUC0-∞ / MRT0-t / MRT0-∞: same. How it is done:
(§1) Three distinct delivery approaches were implemented in 4T1 tumor-bearing female BALB/c mice (6–8-week, tumor volume~200 mm^3, n = 5 per group). i) Consecutive delivery: Nanothread-1 and nanothread-2 were sequentially administered via intravenously injection with a 24 h time interval. ii) Simultaneous delivery: Nanothread-1 and Nanothread-2 were concurrently administered through two tail veins of one mouse. iii) Post-assembly delivery: Nanothread-1 and Nanothread-2 were pre-mixed before intravenous injection (5 nmol of Cy5 and 5 nmol of Cy3 per mouse). For the tumor accumulation study, whole-body living imaging was conducted at 24, 48, and 72 h post-administration of Cy5-labeled Nanothread. Additionally, excised tumors were imaged at the end point using the IVIS optical imaging system. For the pharmacokinetics study, blood samples were extracted at predetermined time points post-administration of fluorescence-labeled Nanothread, n = 5 per group. The fluorescent intensity in blood samples was measured with a microplate reader at the wavelengths of Cy5 (Ex: 630 nm, Em: 670 nm) and Cy3 (Ex: 530 nm, Em: 570 nm). Pharmacokinetic parameters, including half-life (T1/2z), area under curve (AUC), and mean residence time (MRT), were calculated using DAS 2.0 software.

The subject of data set [2] is orthotopic 4T1 breast tumors. Description: Tumor accumulation of Cy5-labeled nanothreads (IVIS imaging, excised tumors). The format is in vivo, female BALB/c mice. The procedure:
For in vitro studies, 4T1 cells (2 × 10^5 cells) were seeded on coverslips (NEST Biotechnology) for attachment. Subsequently, the cells were treated with i) Cy5-labeled P-CM1 (P-CM1-Cy5) for 1 h, followed by incubation in cell culture medium for an additional 1 h, ii) Cy5-labeled P-BS-CM1 (P-BS-CM1-Cy5) for 1 h, followed by incubation in cell culture medium for an additional 1 h, or iii) P-BS-CM1-Cy5 for 1 h, followed by Cy3-labeled P-CM2 (P-CM2-Cy3) for an additional 1 h (5 nM Cy5 and 5 nM Cy3 equivalence), respectively. Following the treatments, cells were washed three times with PBS, stained with DAPI, and observed using a confocal microscope. For in vivo studies, 4T1 cells (1 × 10^6) were injected into the third mammary fat pad of female BALB/c mice (6–8 weeks, 20 ± 2 g) (n = 3) on day 0 to establish orthotopic breast tumor models. For investigation of CXCR4 binding, mice on day 14 (tumor volume, ~200 mm^3) were intravenously injected with P-CM1-Cy5 or P-BS-CM1-Cy5 (equivalent Cy5 dose, 5 nmol/mouse, n = 3). Whole-body living imaging at 24, 48, and 72 h post-administration as well as excised tumors at the end point, were captured using the IVIS optical imaging system (IVIS Lumina Series III, PerkinElmer, USA). For the analysis of CM1/CM2 biorecognition in the second step, 4T1 tumor-bearing mice (tumor volume, ~200 mm^3) were intravenously injected with Cy5 labeled P-CM2 (P-CM2-Cy5) alone on day 15, or pre-injected P-BS-CM1 on day 14 followed by intravenous injection of P-CM2-Cy5 on day 15 (equivalent Cy5 dose, 5 nmol/mouse, n = 3). Whole-body living imaging at 24 and 48 h post-P-CM2-Cy5 administration, as well as excised tumors at the end point, were captured using the IVIS optical imaging system. For further investigation, mice (tumor volume, ~200 mm^3) were intravenously injected with P-BS-CM1-Cy5 on day 14 and then P-CM2-Cy3 on day 15 (5 nmol of Cy5 and 5 nmol of Cy3 per mouse). One day later, tumor tissues were collected for frozen sectioning and further observation by confocal microscope.
as §1

Data set [3] can be described thus: Hydrodynamic size / size distribution by dynamic light scattering. The format is physicochemical. The settings on record: Malvern Zetasizer Nano ZS90, mean ± SD. How it is done: (§2) The average molecular weight (Mw) and polydispersity (PDI) of the HPMA copolymer conjugates were determined by gel permeation chromatography (GPC) on an AKTA purifier equipment with a Superose 6 10/300 GL analytical column (GE Healthcare, USA) and a differential refraction detector (KNAUER, 2300, Germany). Hydrodynamic sizes and zeta potentials were determined using a Malvern Zetasizer Nano ZS90 equipment (Malvern Instruments Ltd, Malvern, UK). The contents of BS, CM1, and CM2 were determined using a bicinchoninic acid (BCA) protein assay. The PS concentration was determined by ultraviolet-visible (UV-Vis) spectroscopy at its characteristic absorbance peak (660 nm).
To investigate the coiled-coil assembly, varying CM1-to-CM2 ratios (3:1, 1:1, and 1:3) of P-BS-CM1 and P-CM2 were mixed in 10 mM PBS (pH 7.4) at 25 °C for 10 min. The total polymer concentration was kept constant at 10 mg/mL. Circular dichroism spectra, size distribution, and rheological properties of P-BS-CM1, P-CM2, and their mixture were measured. The surface morphology of P-BS-CM1 and the mixture (P-BS-CM1 + P-CM2) was observed using scanning electron microscopy. Additionally, for the FRET assay, CM1-to-CM2 equimolar of P-BS-CM1-Cy5 and P-CM2-Cy3 were mixed in 10 mM PBS (pH 7.4) at 25 °C for 10 min. Fluorescent spectra of P-BS-CM1-Cy5, P-CM2-Cy3, and the mixture (P-BS-CM1-Cy5+P-CM2-Cy3) were recorded at the Cy3 excitation wavelength of 550 nm.

Data set [4] is described as follows: ζ-potential (Zetasizer). The following applies: Malvern Zetasizer Nano ZS90; mean ± SD. The class given is physicochemical. How it is done: as §2

Ends that are not written are not given here. HPMA copolymer = HPMA copolymer made by RAFT copolymerization of HPMA with N-(3-aminopropyl)methacrylamide (APMA), bearing maleimide groups for grafting

With “P-CM2-Cy5: Cy5 labeled P-CM2 (C(HPMA copolymer)YGGEVSALEKEVSALEKKNSALEKEVSALEKEVSALEK; also: Cy5 label on conjugate, position not given here)”, the T1/2z in data set [1] (Consecutive delivery (24 h interval) with unlabeled partner nanothread, i.v., 4T1 tumor-bearing mice, 5 nmol Cy5/mouse, DAS 2.0) came to 20.232 ± 6.5 h; in data set [1] (Post-assembly delivery (pre-mixed with unlabeled partner nanothread before i.v. injection)), 14.142 ± 3.54 h; in data set [1] (Simultaneous delivery (two tail veins, 0 h) with unlabeled partner nanothread, i.v.), 17.583 ± 4.307 h. The AUC0-t in data set [1] (Consecutive delivery) stood at 2807.529 ± 561.373 ng·h/mL; in data set [1] (Post-assembly delivery) it was 1356.51 ± 241.624 ng·h/mL; in data set [1] (Simultaneous delivery), 1339.808 ± 201.879 ng·h/mL. The figures for the “AUC0-∞” value in data set [1] (Consecutive delivery), in data set [1] (Post-assembly delivery) and in data set [1] (Simultaneous delivery) were 2999.46 ± 668.451 ng·h/mL, 1374.981 ± 237.509 ng·h/mL and 1385.53 ± 238.655 ng·h/mL, respectively. Also, the MRT0-t stood at 15.196 ± 1.358 h in data set [1] (Consecutive delivery), 8.789 ± 0.154 h in data set [1] (Post-assembly delivery) and 9.919 ± 0.611 h in data set [1] (Simultaneous delivery). Besides, the results for the “MRT0-∞” value in data set [1] (Consecutive delivery), in data set [1] (Post-assembly delivery) and in data set [1] (Simultaneous delivery) were 21.117 ± 3.236 h, 10.384 ± 0.829 h and 12.694 ± 2.736 h, respectively. The “tumor accumulation of Nanothread-2 (Fig. 5b, excised tumors)” value in data set [2] (P-CM2-Cy5 i.v. 5 nmol Cy5/mouse 24 h after saline or P-BS-CM1, IVIS at end point (48 h), animal 1 of 3) was determined as 1.72; in data set [2] (P-CM2-Cy5 i.v. 5 nmol Cy5/mouse 24 h after saline or P-BS-CM1, IVIS at end point (48 h), animal 1 of 3, listed as G3) it was 0.962; in data set [2] (same, animal 2 of 3), 1.74; in data set [2] (same, animal 2 of 3, listed as G3), 0.787; in data set [2] (same, animal 3 of 3), 1.49; in data set [2] (same, animal 3 of 3, listed as G3), 0.495. In data set [3], this substance registered a Size of 19.8±0.7 nm. Moreover, in data set [4], the ζ-potential is given as -8.94±0.45 mV.
